Our source for the Kd and KD values is publication PMC11910620 (Nature Communications, 2025).

First the molecules themselves.
T1: Msn5 (S. cerevisiae exportin), wild type (S. cerevisiae, UniProt P52918 1-1224)
T1 sequence: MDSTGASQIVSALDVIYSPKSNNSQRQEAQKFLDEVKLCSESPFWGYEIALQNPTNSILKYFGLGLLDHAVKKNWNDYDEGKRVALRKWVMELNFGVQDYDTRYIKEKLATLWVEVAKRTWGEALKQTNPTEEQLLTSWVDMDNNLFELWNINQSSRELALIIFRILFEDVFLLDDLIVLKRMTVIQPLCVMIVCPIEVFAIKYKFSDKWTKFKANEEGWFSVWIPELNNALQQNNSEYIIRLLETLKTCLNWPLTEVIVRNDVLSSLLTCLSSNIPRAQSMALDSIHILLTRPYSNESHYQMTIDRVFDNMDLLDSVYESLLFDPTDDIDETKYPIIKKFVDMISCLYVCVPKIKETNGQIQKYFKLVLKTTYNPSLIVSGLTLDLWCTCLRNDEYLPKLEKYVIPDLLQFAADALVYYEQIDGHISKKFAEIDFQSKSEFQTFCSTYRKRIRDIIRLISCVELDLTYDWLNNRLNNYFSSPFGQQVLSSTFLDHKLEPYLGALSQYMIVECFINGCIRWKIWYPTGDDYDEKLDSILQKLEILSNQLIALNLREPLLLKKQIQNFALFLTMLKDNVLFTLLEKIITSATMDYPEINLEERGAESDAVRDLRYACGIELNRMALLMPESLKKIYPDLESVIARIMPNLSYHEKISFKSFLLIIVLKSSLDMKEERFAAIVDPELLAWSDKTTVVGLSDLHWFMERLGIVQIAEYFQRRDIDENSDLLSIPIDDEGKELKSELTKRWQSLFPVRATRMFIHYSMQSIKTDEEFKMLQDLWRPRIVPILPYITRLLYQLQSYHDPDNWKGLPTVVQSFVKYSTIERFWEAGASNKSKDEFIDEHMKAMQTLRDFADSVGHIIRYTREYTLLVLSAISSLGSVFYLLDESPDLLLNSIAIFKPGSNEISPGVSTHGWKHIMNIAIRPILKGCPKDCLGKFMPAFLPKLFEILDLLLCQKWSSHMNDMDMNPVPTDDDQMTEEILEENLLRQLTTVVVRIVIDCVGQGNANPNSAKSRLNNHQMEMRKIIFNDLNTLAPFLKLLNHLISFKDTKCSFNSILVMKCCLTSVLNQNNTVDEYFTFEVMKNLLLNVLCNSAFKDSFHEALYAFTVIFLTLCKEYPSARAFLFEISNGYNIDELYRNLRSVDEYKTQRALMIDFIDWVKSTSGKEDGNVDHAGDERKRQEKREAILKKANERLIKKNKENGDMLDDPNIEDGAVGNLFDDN

B1: mNeonGreen-Pho4_(3-200), unphosphorylated (domain or fragment)
chain: RTTSEGIHGFVDDLEPKSSILDKVGDFITVNTKRHDGREDFNEQNDELNSQENHNSSENGNENENEQDSLALDDLDRAFELVEGMDMDWMMPSHAHHSPATTATIKPRLLYSPLIHTQSAVPVTISPNLVATATSTTSANKVTKNKSNSSPYLNKRRGKPGPDSATSLFELPDSVIPTPKPKPKPKQYPKVILPSNST
B2: mNeonGreen-pPho4_(3-200) S128A (domain or fragment)
chain: RTTSEGIHGFVDDLEPKSSILDKVGDFITVNTKRHDGREDFNEQNDELNSQENHNSSENGNENENEQDSLALDDLDRAFELVEGMDMDWMMPSHAHHSPATTATIKPRLLYSPLIHTQSAVPVTIAPNLVATATSTTSANKVTKNKSNSSPYLNKRRGKPGPDSATSLFELPDSVIPTPKPKPKPKQYPKVILPSNST
modifications: phosphorylated in vitro by Pho80-Pho85: pS100, pS114, pS152
B3: mNeonGreen-pPho4_(3-200) R3mut (domain or fragment)
chain: RTTSEGIHGFVDDLEPKSSILDKVGDFITVNTKRHDGREDFNEQNDELNSQENHNSSENGNENENEQDSLALDDLDRAFELVEGMDMDWMMPSHAHHSPATTATIKPRLLYSPLIHTQSGGSGGSSPNLVATATSTTSANKVTKNKSNSSPYLNKRRGKPGPDSATSLFELPDSVIPTPKPKPKPKQYPKVILPSNST
modifications: phosphorylated in vitro by Pho80-Pho85: pS100, pS114, pS128, pS152
B4: mNeonGreen-pPho4_(3-200) 102–107GKK (domain or fragment)
chain: RTTSEGIHGFVDDLEPKSSILDKVGDFITVNTKRHDGREDFNEQNDELNSQENHNSSENGNENENEQDSLALDDLDRAFELVEGMDMDWMMPSHAHHSPGKKGKKKPRLLYSPLIHTQSAVPVTISPNLVATATSTTSANKVTKNKSNSSPYLNKRRGKPGPDSATSLFELPDSVIPTPKPKPKPKQYPKVILPSNST
modifications: phosphorylated in vitro by Pho80-Pho85: pS100, pS114, pS128, pS152
B5: mNeonGreen-pPho4_(3-200) R4mut (L131A/T134A) (domain or fragment)
chain: RTTSEGIHGFVDDLEPKSSILDKVGDFITVNTKRHDGREDFNEQNDELNSQENHNSSENGNENENEQDSLALDDLDRAFELVEGMDMDWMMPSHAHHSPATTATIKPRLLYSPLIHTQSAVPVTISPNAVAAATSTTSANKVTKNKSNSSPYLNKRRGKPGPDSATSLFELPDSVIPTPKPKPKPKQYPKVILPSNST
modifications: phosphorylated in vitro by Pho80-Pho85: pS100, pS114, pS128, pS152
B6: mNeonGreen-pPho4_(3-200) S114A (domain or fragment)
chain: RTTSEGIHGFVDDLEPKSSILDKVGDFITVNTKRHDGREDFNEQNDELNSQENHNSSENGNENENEQDSLALDDLDRAFELVEGMDMDWMMPSHAHHSPATTATIKPRLLYAPLIHTQSAVPVTISPNLVATATSTTSANKVTKNKSNSSPYLNKRRGKPGPDSATSLFELPDSVIPTPKPKPKPKQYPKVILPSNST
modifications: phosphorylated in vitro by Pho80-Pho85: pS100, pS128, pS152
B7: mNeonGreen-pPho4_(3-200) S100/152AA (domain or fragment)
chain: RTTSEGIHGFVDDLEPKSSILDKVGDFITVNTKRHDGREDFNEQNDELNSQENHNSSENGNENENEQDSLALDDLDRAFELVEGMDMDWMMPSHAHHAPATTATIKPRLLYSPLIHTQSAVPVTISPNLVATATSTTSANKVTKNKSNSAPYLNKRRGKPGPDSATSLFELPDSVIPTPKPKPKPKQYPKVILPSNST
modifications: phosphorylated in vitro by Pho80-Pho85: pS114, pS128
B8: mNeonGreen-pPho4_(3-200) R2mut (domain or fragment)
chain: RTTSEGIHGFVDDLEPKSSILDKVGDFITVNTKRHDGREDFNEQNDELNSQENHNSSENGNENENEQDSLALDDLDRAFELVEGMDMDWMMPSHAHHSPATTATIKPRLLGSPGGSGQSAVPVTISPNLVATATSTTSANKVTKNKSNSSPYLNKRRGKPGPDSATSLFELPDSVIPTPKPKPKPKQYPKVILPSNST
modifications: phosphorylated in vitro by Pho80-Pho85: pS100, pS114, pS128, pS152
B9: mNeonGreen-pPho4_(3-200) S114/128AA (domain or fragment)
chain: RTTSEGIHGFVDDLEPKSSILDKVGDFITVNTKRHDGREDFNEQNDELNSQENHNSSENGNENENEQDSLALDDLDRAFELVEGMDMDWMMPSHAHHSPATTATIKPRLLYAPLIHTQSAVPVTIAPNLVATATSTTSANKVTKNKSNSSPYLNKRRGKPGPDSATSLFELPDSVIPTPKPKPKPKQYPKVILPSNST
modifications: phosphorylated in vitro by Pho80-Pho85: pS100, pS152
B10: Msn5 (S. cerevisiae exportin), wild type (natural protein)
chain: MDSTGASQIVSALDVIYSPKSNNSQRQEAQKFLDEVKLCSESPFWGYEIALQNPTNSILKYFGLGLLDHAVKKNWNDYDEGKRVALRKWVMELNFGVQDYDTRYIKEKLATLWVEVAKRTWGEALKQTNPTEEQLLTSWVDMDNNLFELWNINQSSRELALIIFRILFEDVFLLDDLIVLKRMTVIQPLCVMIVCPIEVFAIKYKFSDKWTKFKANEEGWFSVWIPELNNALQQNNSEYIIRLLETLKTCLNWPLTEVIVRNDVLSSLLTCLSSNIPRAQSMALDSIHILLTRPYSNESHYQMTIDRVFDNMDLLDSVYESLLFDPTDDIDETKYPIIKKFVDMISCLYVCVPKIKETNGQIQKYFKLVLKTTYNPSLIVSGLTLDLWCTCLRNDEYLPKLEKYVIPDLLQFAADALVYYEQIDGHISKKFAEIDFQSKSEFQTFCSTYRKRIRDIIRLISCVELDLTYDWLNNRLNNYFSSPFGQQVLSSTFLDHKLEPYLGALSQYMIVECFINGCIRWKIWYPTGDDYDEKLDSILQKLEILSNQLIALNLREPLLLKKQIQNFALFLTMLKDNVLFTLLEKIITSATMDYPEINLEERGAESDAVRDLRYACGIELNRMALLMPESLKKIYPDLESVIARIMPNLSYHEKISFKSFLLIIVLKSSLDMKEERFAAIVDPELLAWSDKTTVVGLSDLHWFMERLGIVQIAEYFQRRDIDENSDLLSIPIDDEGKELKSELTKRWQSLFPVRATRMFIHYSMQSIKTDEEFKMLQDLWRPRIVPILPYITRLLYQLQSYHDPDNWKGLPTVVQSFVKYSTIERFWEAGASNKSKDEFIDEHMKAMQTLRDFADSVGHIIRYTREYTLLVLSAISSLGSVFYLLDESPDLLLNSIAIFKPGSNEISPGVSTHGWKHIMNIAIRPILKGCPKDCLGKFMPAFLPKLFEILDLLLCQKWSSHMNDMDMNPVPTDDDQMTEEILEENLLRQLTTVVVRIVIDCVGQGNANPNSAKSRLNNHQMEMRKIIFNDLNTLAPFLKLLNHLISFKDTKCSFNSILVMKCCLTSVLNQNNTVDEYFTFEVMKNLLLNVLCNSAFKDSFHEALYAFTVIFLTLCKEYPSARAFLFEISNGYNIDELYRNLRSVDEYKTQRALMIDFIDWVKSTSGKEDGNVDHAGDERKRQEKREAILKKANERLIKKNKENGDMLDDPNIEDGAVGNLFDDN

In one test the target is T1, Msn5 (S. cerevisiae exportin), wild type. In words: fluorescence polarisation.
Settings: not given
In general terms: Fluorescence polarisation rises when a labelled molecule tumbles more slowly, as on binding a larger partner.
As to B1, binding was characterised by a dissociation constant (Kd) of 2.4 µM.

As for B2, the Kd – broadly, the concentration at which binding is half-saturated – was 0.12 µM.

As to B3, the Kd was 0.28 µM.

B4 returned a Kd of 0.11 µM.

B5 returned an equilibrium dissociation constant (Kd) of 0.15 µM.

B6 displayed a dissociation constant Kd of 0.25 µM.

Consider B7, for which the equilibrium dissociation constant (Kd) was determined as 0.046 µM.

Consider B8, for which the affinity, expressed as Kd, was 0.8 µM.

On to B9, for which binding was put at a Kd of 1 µM.

The target of the next test is Pho4_(1-200) S114/128DD and Pho4_(1-200) S114/128EE. In words: fluorescence polarisation.
Settings: not given
Regarding B10, the equilibrium dissociation constant (Kd) fell in the range of 2 to 3 µM.

For another test, the target named is Msn5 (Kap142) (UniProt P52918). In words: fluorescence polarization titration, mNeonG-pPho4. The conditions noted are these: reference: wild-type pPho4; sites S114.
As to “Pho4 3-200 (from UniProt P07270) pPho4 S114A”, the KD result was “weaker; reference 44[26,71]”.
